Reference: patent US20200040057A1 (IMMATICS BIOTECHNOLOGIES, published 2020)

Molecular target: HLA-B*07 (human)
Experiment: UV peptide exchange ELISA; ++++ = yield >75%

Row | Binder | peptide exchange yield
1 | IPVTSSVTL | > 75%
2 | LPSLSHCSQL | > 75%
3 | MPYVVLTAL | > 75%
4 | RPSKEMQVTI | > 75%
5 | TPFPDIHWF | > 75%
6 | QPDHAGIFRVF | > 75%
7 | QPTWNTQTRL | > 75%
8 | SPSGQRDVSL | > 75%
9 | QPSLVQAIF | > 75%
10 | YPSSPASAV | > 75%
11 | MPVSAFTVI | > 75%
12 | LPRLPVGSLV | > 75%
13 | RPRYETGVCA | > 75%

Further lines, results first:

Row | peptide exchange yield | Binder
14 | > 75% | RPVTGSVC
15 | > 75% | KPRTPFTTAQLL
16 | > 75% | LPLNSSTSL
17 | > 75% | RPRSLQCVSL
18 | > 75% | FPCSALLACF
19 | > 75% | APPPPPPPF
20 | > 75% | NVNPARKGL
21 | > 75% | SPTRGSEF
22 | > 75% | RAAGRRLQL
23 | > 75% | IPHQRSSL
24 | > 75% | RLRDYISSL
25 | > 75% | RPFSVSSISQL
26 | > 75% | QPLDICHSF
27 | > 75% | QPVHSLCSA
28 | > 75% | RPVLTASSF
29 | > 75% | APEGKRLGF
30 | > 75% | KPHLDRRGAVI
